Data taken from US20170115293A1.

Biological target: FAS (CD95, APO-1) death receptor (human) (UniProt P25445)
Experiment: cell-based or functional assay

Chain of UniProt P25445 (P25445 26-335): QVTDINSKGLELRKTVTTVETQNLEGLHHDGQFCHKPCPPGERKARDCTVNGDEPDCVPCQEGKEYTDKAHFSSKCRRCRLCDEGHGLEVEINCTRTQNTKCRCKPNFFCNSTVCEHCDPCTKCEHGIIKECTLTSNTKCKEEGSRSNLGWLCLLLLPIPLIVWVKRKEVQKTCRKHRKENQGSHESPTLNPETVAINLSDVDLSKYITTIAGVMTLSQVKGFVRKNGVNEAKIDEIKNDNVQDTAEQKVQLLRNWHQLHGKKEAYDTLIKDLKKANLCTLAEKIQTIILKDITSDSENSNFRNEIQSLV

Work on “CH11, a FAS agonistic (stimulating) antibody (monoclonal mouse antibody, cat. no. 05-201; EMD Millipore)” yielded a clonogenic cell survival of SUM159: radiation dose to achieve a surviving fraction of 0.1 of 3.25 Gy and a clonogenic cell survival of SUM159 after irradiation: dose-modifying factor of 2.5.
